Results on seven molecules are retold here after patent publication US20170052184A1.

Experiment [1] deals with bovine serum albumin (bovine) (UniProt P02769). The experiment is described as follows: EIA, BSA control.
The target in experiment [2] is bovine serum albumin (BSA) (bovine) (UniProt P02769). The experiment is described as follows: EIA, BSA background.
Experiment [3] has the same target. In words: EIA, BSA background. This is another data set of the same source.

Like-named read-outs stand apart in the source and are kept apart here.

Chain of bovine serum albumin (BSA) (bovine) (P02769 25-607 limits assumed): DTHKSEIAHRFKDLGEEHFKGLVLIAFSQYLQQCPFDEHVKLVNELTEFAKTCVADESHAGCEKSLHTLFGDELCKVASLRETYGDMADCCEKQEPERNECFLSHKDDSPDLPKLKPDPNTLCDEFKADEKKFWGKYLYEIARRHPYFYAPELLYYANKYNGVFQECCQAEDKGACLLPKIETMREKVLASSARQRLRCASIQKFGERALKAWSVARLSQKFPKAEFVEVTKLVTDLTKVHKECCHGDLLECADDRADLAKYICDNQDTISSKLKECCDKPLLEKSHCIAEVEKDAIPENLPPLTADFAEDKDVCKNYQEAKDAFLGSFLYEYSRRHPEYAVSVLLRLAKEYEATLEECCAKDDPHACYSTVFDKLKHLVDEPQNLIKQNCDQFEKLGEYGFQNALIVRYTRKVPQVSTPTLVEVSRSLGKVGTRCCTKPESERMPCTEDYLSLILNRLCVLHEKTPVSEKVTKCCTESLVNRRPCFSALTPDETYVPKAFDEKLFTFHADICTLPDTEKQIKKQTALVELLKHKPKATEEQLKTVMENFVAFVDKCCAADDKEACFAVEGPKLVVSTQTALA
Chain of bovine serum albumin (bovine) (P02769 25-607 limits assumed): as above

B1: HCV 208B-178 (antibody, V domains shown)
VH: DVKLVESGGGLVKLGGSLKLSCAASGFTFSSYYMSWVRQTPEKRLELVAAINSNGGSTYYPDTVKGRFTISRDNAKNTLYLQMSSLKSEDTALYYCARHGGLGRRDWYFDVWGAGTTVTVSS
VL: DIVLTQSPASLAVSLGQRATISCRASESVDNYGISFMHWYQQKPGQPPKLLIYRASNLESGIPARFSGSGSRTDFTLTINPVETDDVATYYCQQSNKDPFTFGSGAKLEIKR
B1 showed a Reactivity (OD 492 nm) in experiment [1] of 0.07 OD units. Moreover, the OD (A492) in experiment [2] is 0.07 OD; in experiment [3], 0.08 OD.

B2: HCV 208B-327 (antibody, V domains shown)
VH: EVQLVESGGGLVKPGGSLKLSCAASGFTFSDSYMYWVRQTPDQRLEWVATISDGGSYTFYPDSVKGRFTISRDNAQNNLYLQMSSLKSEDTAMYYCASPHAGYFGWFAYWGRGTLVTVSA
VL: DIVMTQAAFSNPVTPGTSVSISCRSSKSLLHSNGITYLYWYLQKPGQSPQLLIYQMSKIASGVPDRFRSSGSGTDFTLRISRVEAADVGVYYCAQNLELPWTFGGGTKLEIKR
Regarding B2, the Reactivity (OD 492 nm) in experiment [1] is 0.05 OD units. Moreover, the OD (A492) in experiment [2] was 0.08 OD; in experiment [3] it was 0.09 OD.

B3: HCV 208B-793 (antibody, V domains shown)
VH: EVKLVESGGGLVQPGGSLKLSCAASGFTFSSYAMSWVRQTPERRLEWVTYISNGGGSTYYSDTVKGRFTFSRDNAKNTLYLQMSSLKSEDTAMYYCARHGLGRTGFASWGQGTLVTVSA
VL: DIVMTQSHKFMSTSVGDRVSITCKASQDVGTAVAWYQQKPGQSPKLLIYWASTRHTGVPDRFTGSGSGTDFTLTISNVQSEDLADYFCQQYSNYLTFGAGTKLEVKR
On to B3, for which the Reactivity (OD 492 nm) in experiment [1] is 0.13 OD units. Besides, the OD (A492) was found to be 0.42 OD in experiment [2] and 0.2 OD in experiment [3].

B4: HCV 208A-442 (antibody, V domains shown)
VH: DVQLQESGPGLVNPSQSLSLTCSVTGYSITSGYYWIWIRQFPGNKLEWMGYIKYDGGNNYSPSLKNRISIARDTSKNQFFLKLNSVTIEDTATYYCTRGSDSFDYWGQGTTLTVSS
VL: DIVLTQSPASLAVSLGQRAIISCKASQSVSFAGTNLMHWYQQKPGQQPKLLIYRASNLETGVPTRFSGSGSRTDFTLNIHPVEEDDAATYYCQQSREYYTFGGGTKLEIKR
In experiment [1], B4 showed a Reactivity (OD 492 nm) of 0.06 OD units. Moreover, the OD (A492) is 0.06 OD in experiment [2] and 0.14 OD in experiment [3].

B5: HCV 208B-353 (antibody, V domains shown)
VH: EVQLVESGGDLVKPGGSLKLSCAASGFTFNHYGMSWVRQPPDKRLEWVATISSGGGYTYYPDSVKGRFTISRDNAKDTLSLQMSSLRSGDTAVYYCASLYGSLFAYWGQGTLVTVSA
VL: DIVMTQSQKFMSTTVGDRVRVTCKASQNVGTAVAWYQQKPGQSPKLLIYSASNRYTGVPDRFTGSGSGTDFTLTITNMQSEDLADYFCQQYSTYPLTFGSGAKLEIKR
B5 yielded a Reactivity (OD 492 nm) in experiment [1] of 0.07 OD units. The OD (A492) is 0.06 OD in experiment [2] and 0.1 OD in experiment [3].

B6: HCV 208B-515 (antibody, V domains shown)
VH: QVQLQQPGAELVKPGASLKLSCRASGYTFTSYWIHWVKQRPGQGLEWIGEIDPSDSYTNYNQKFKGKATLTVDKSSRAAYMQLSSLTSEDSAVYYCARHYYGVFDSWGQGTKLTVSS
VL: QIVFTQYPAIMSASLGERVTMTCTASSSVTSSYLHWFQQKPGSSPKLWIYSTSNPGSGVPARFSGRGSGTSYSLSISSMEAEDAATYYCLQFHRSPWTFGGGTKLEIRR
For the molecule B6, in experiment [1], the Reactivity (OD 492 nm) amounted to 0.06 OD units. The OD (A492) in experiment [2] was 0.07 OD; in experiment [3], 0.08 OD.

B7: HCV 208B-517 (antibody, V domains shown)
VH: QVQLKQSGPGLVQPSQSLSITCTVSGFSLITHGVHWVRQSPGKGLEWLGVIWSGGSTDYNAAFISRLSISKDTSKSQVFLKMSSLQADDTAIYYCARNGGATAFDYWGQGTTLTVSS
VL: DIVMTQSPATLSVTPGDRVSLSCRASQSISDYLHWYQQKSHESPRLLIKYASQSISGIPSRFRGSGSGSHFTLSINSVEPEDVGVYYCQNGHSFPWTFGGGTKLEIKR
B7 yielded a Reactivity (OD 492 nm) in experiment [1] of 0.11 OD units. The OD (A492) stood at 0.07 OD in experiment [2] and 0.12 OD in experiment [3].
